Assay results published in patent US20220048982A1 (Eli Lilly, published 2022).
Where a chain is given by its changes, count along the chain named. Where two headings read alike, the source gives them in different places.

T1: biotinylated human α-synuclein peptide 120-140 (human, biotinylated (site not stated))
T1 construct: also called α-synuclein fragment 120-140
T1 peptide: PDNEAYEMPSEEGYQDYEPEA

B1: Antibody 1 (antibody, human IgG4 S228P, kappa, F234A L235A, V domains shown)
VH: EVQLLESGGGLVQPGGSLRLSCAASGFTFSSYAMSWVRQAPGKGLEWVSAISGSGGDTYYADSVKGRFTISRDNSKNTLYLQMNSLRAEDTAVYYCARGYGMDVWGQGTTVTVSS
VL: DVVMTQSPLSLPVTLGQPASISCRSSQSLVHSDGNTYLMWFQQRPGQSPRRLIYKVSNRNSGVPDRFSGSGSGTDFTLKISRVEAEDVGVYYCMQGTKQYPTFGQGTKLEIKR
modifications: about 1% of the N-terminal glutamic acid may be converted to pyroglutamic acid; less than about 1% of the C-terminal glycine may be clipped
notes: IgG4PAA, kappa
B2: Antibody 2 (antibody, human IgG4 S228P, kappa, F234A L235A, V domains shown)
VH: B1 VH with K65Q
VL: B1 VL with S28D, N58D
modifications: about 1% of the N-terminal glutamic acid may be converted to pyroglutamic acid; less than about 1% of the C-terminal glycine may be clipped
notes: IgG4PAA, kappa

What was measured:
[1] = biological target: pHAb-dye labelled human α-synuclein fibrils (1-140) (human, UniProt P37840 1-140); experiment: cell-based or functional assay
[2] = biological target: truncated human α-synuclein fragment 1-120 (human, UniProt P37840 1-120); experiment: ELISA on plate-coated truncated human alpha-synuclein fragment 1-120, detection with goat anti-human kappa-AP, OD560
Procedure: (§1) An ELISA plate is coated with recombinant human α-synuclein fibril at 1 μg/ml in PBS overnight at 4° C. The next day, the plate is incubated with 1% casein for 1 hour at room temperature to block non-specific binding sites on the plate. […] After incubation, the plate is washed three times with 0.1% PBST to remove un-bound antibody and incubated with a detection agent (1:1000 diluted goat-anti-human Kappa-AP) in 0.1% PBST for 1 hour at room temperature. The plate is washed three times with 0.1% PBST to remove un-bound detection agent and incubated with a substrate for 15 minutes at room temperature. The OD is then read in an ELISA plate reader at 560 nm. The binding curve is obtained based on the antibody concentration and OD560 readout.
(§2) Binding full-length (1-140) α-synuclein is also determined. The procedure is essentially as described above for α-synuclein fibril binding.

[3] = biological target: monomeric human alpha-synuclein fragment 1-121 (human, UniProt P37840 1-121); experiment: Kinexa at 37 C, solution equilibrium
Procedure: (§3) These samples are incubated for 24 to 48 hours at 37 C to allow for steady state equilibrium to be achieved. During this time, sepharose beads are conjugated with monomeric human alpha-synuclein and blocked with a suitable non-specific binding protein (typically BSA or casein). Once steady state is achieved, a small capillary is packed with coated beads and samples of each fixed antibody/alpha-synuclein monomer are injected over the column. […] This step is repeated for each concentration of alpha-synuclein monomer and resultant fluorescent signal (proportional to percent free antibody) and then plotted as a function of fluorescent signal versus monomeric α-synuclein concentration and globally fit to a 1:1 binding model to obtain KD. Independent runs (n=3) run with technical duplicates (95% confidence intervals) are reported.

[4] = biological target: monomeric human alpha-synuclein fragment 1-115 (human, UniProt P37840 1-115); experiment: Kinexa at 37 C, solution equilibrium
Procedure: as §3

[5] = biological target: T2, monomeric human α-synuclein (human, UniProt P37840 1-140); experiment: Kinexa at 37 C, solution equilibrium
Procedure: as §3

[6] = biological target: T3, recombinant human α-synuclein fibril (human, UniProt P37840 1-140); experiment: cell-based or functional assay
mIgG1-hAsyn100-140 [7] = biological target: T4, mIgG1-hAsyn100-140 (mouse; human, UniProt P37840 100-140); experiment: MSD-SET solution equilibrium at 25 C
T4 construct: C-terminal fragment of human α-synuclein fused onto the C-terminal end of a mouse Fc; also called dimeric human alpha-synuclein; dimeric α-synuclein; not shown: mouse IgG1 Fc fragment; short unstructured linker element

mIgG1-hAsyn100-140 [8] = biological target: T4, mIgG1-hAsyn100-140; experiment: ratio of Kinexa KD for monomeric human α-synuclein to MSD-SET KD for dimeric α-synuclein, 37 C
Procedure: During this time, sepharose beads are conjugated with monomeric human alpha-synuclein and blocked with a suitable non-specific binding protein (typically BSA or casein). Once steady state is achieved, a small capillary is packed with coated beads and samples of each fixed antibody/alpha-synuclein monomer are injected over the column. […] This step is repeated for each concentration of alpha-synuclein monomer and resultant fluorescent signal (proportional to percent free antibody) and then plotted as a function of fluorescent signal versus monomeric α-synuclein concentration and globally fit to a 1:1 binding model to obtain KD. Independent runs (n=3) run with technical duplicates (95% confidence intervals) are reported.
During this incubation time, an MSD Sector plate is coated with monomeric human alpha-synuclein and blocked with a blocking reagent (i.e. BSA, casein). Following steady state equilibrium incubation times, individual antibody/mIgG1-hAsyn 100-140 mixtures are added simultaneously to the plate and allowed to incubate for 10 minutes to capture free antibody and minimize exchange with antibody in complex with mIgG1-hAsyn100-140. Following this short incubation, plates are subsequently washed and incubated with a biotinylated anti-human secondary antibody, followed by detection using streptavidin-S-tag on the MSD instrument. […]

[9] = biological target: monomeric rat alpha-synuclein (rat, UniProt P37377 1-140); experiment: Kinexa at 37 C, solution equilibrium
Procedure: as §3

[10] = biological target: monomeric mouse alpha-synuclein (mouse, UniProt O55042 1-140); experiment: Kinexa at 37 C, solution equilibrium
Procedure: as §3

[11] = biological target: monomeric rabbit alpha-synuclein (rabbit); experiment: Kinexa at 37 C, solution equilibrium
Procedure: as §3

[12] = biological target: T2, monomeric human α-synuclein; experiment: Kinexa at 37 C, solution equilibrium; remark: listed apart in the source
Procedure: as §3

mIgG1-hAsyn100-140 [13] = biological target: T4, mIgG1-hAsyn100-140; experiment: MSD-SET solution equilibrium at 37 C
Procedure: During this incubation time, an MSD Sector plate is coated with monomeric human alpha-synuclein and blocked with a blocking reagent (i.e. BSA, casein). Following steady state equilibrium incubation times, individual antibody/mIgG1-hAsyn 100-140 mixtures are added simultaneously to the plate and allowed to incubate for 10 minutes to capture free antibody and minimize exchange with antibody in complex with mIgG1-hAsyn100-140. Following this short incubation, plates are subsequently washed and incubated with a biotinylated anti-human secondary antibody, followed by detection using streptavidin-S-tag on the MSD instrument. The resultant MSD signal (proportional to % free antibody) is then plotted as a function of mIgG1-hAsyn100-140 concentration and globally fit to a four parameter fit to obtain IC₅₀ (KD). Reported 95% confidence intervals represent the fitting of N=3 independent runs each with technical duplicates. The avidity-factor is the ratiometric difference between monomer affinity and dimer affinity and represents the selectivity in binding between monomeric and dimeric α-synuclein for antibody.

[14] = biological target: T3, recombinant human α-synuclein fibril; experiment: ELISA, plate coated with fibril at 1 µg/ml
Procedure: An Enzyme-Linked Immunosorbent Assay (ELISA) is performed for quantitative determination of antibody affinity to recombinant human α-synuclein fibril.
as §1

[15] = biological target: T2, monomeric human α-synuclein; experiment: ELISA on plate-coated full-length (1-140) human alpha-synuclein, detection with goat anti-human kappa-AP, OD560
Procedure: as §1, §2

[16] = biological target: T1, biotinylated human α-synuclein peptide …; experiment: ELISA on biotinylated human alpha-synuclein peptide 120-140, detection with goat anti-human kappa-AP, OD560
Procedure: as §1, §2

Row | Binder | Average IC50, inhibition of fibril internalization into SH-SY5Y cells [1] [mg/L] | IC50 Standard Deviation, inhibition of fibril internalization into SH-SY5Y cells [1] [mg/L] | EC50 (read off the curve) [2] [nM] | Kd [3] [nM] | Kd [4] [nM] | Kd [5] [nM] | Average IC50, inhibition of alpha-synuclein aggregation in SHSY-5Y-A53T-myc cells [6] [mg/L] | Kd (mIgG1-hAsyn100-140 [7]) [nM] | avidity factor (monomer KD against dimer KD) (mIgG1-hAsyn100-140 [8]) [fold] | Kd [9] [nM] | Kd [10] [nM] | Kd [11] [nM] | Kd [12] [nM] | Kd (mIgG1-hAsyn100-140 [13]) [nM] | EC50 [14] [mg/L] | EC50 (read off the curve) [15] [nM] | EC50 (read off the curve) [16] [nM]
1 | B1 | 0.45 | 0.017 | ~0.7 | 11.8 | 675 | 19 | 0.41 | 0.00012 | ~20000 | 89 | 49.7 | 554 | 19 | 0.00097 | 0.000193 | ~1 | ~0.9
2 | B2 | 0.56 | 0.026 | ~0.6 | – | – | – | 0.4 | 0.0032 | – | 140 | 99.3 | 1020 | 65.6 | – | 0.000161 | ~0.8 | ~5
